# Measured values published in patent US20040072293A1, “Novel physiologically active peptide and use thereof” (priority 2001, published 2004).
# B1: MIT1 (protein, listed as Dendroaspip polylepis)
# chain: AVITGACERDLQCGKGTCCAVSLWIKSVRVCTPVGTSGEDCHPASHKIPFSGQRMHHTCPCAPNLACVQTSPKKFKCLSK
# Tests used:
# [1] = biological target: T1, the protein of the invention (ZAQ) (Homo sapiens, UniProt Q8TCW9); experiment: activation of the protein of the invention and intracellular Ca ion concentration in cells expressing it; assay type: cell-based
# T1 construct: expressed in transfected cells
# ileum or distal colon = details: cited from earlier work
# proximal colon = details: cited from earlier work
# T1 sequence (Q8TCW9 whole entry): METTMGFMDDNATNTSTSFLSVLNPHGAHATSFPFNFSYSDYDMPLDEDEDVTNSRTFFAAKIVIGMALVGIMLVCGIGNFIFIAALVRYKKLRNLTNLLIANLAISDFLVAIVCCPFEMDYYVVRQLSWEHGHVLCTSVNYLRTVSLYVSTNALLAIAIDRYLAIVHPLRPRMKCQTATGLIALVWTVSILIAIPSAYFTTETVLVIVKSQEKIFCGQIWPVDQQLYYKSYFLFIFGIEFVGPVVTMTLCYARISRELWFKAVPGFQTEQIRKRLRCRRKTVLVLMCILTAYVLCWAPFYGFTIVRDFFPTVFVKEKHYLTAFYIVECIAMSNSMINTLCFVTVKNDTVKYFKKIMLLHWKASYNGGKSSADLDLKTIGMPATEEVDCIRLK
molecule,measurement,setting,value
B1,activation of the protein of the invention,[1],activated the protein of the invention
same,intracellular Ca ion concentration,[1]; cells in which the protein of the invention was expressed,increased intracellular Ca ion concentration
same,contraction in the ileum or distal colon,ileum or distal colon,induced contraction in the ileum or distal colon
same,degree of contraction/relaxation compared with potassium chloride,"ileum or distal colon; ileum, distal colon (contraction) and proximal colon (relaxation), comparator 40 mM potassium chloride",as potent as comparable to 40 mM potassium chloride
same,relaxation in the proximal colon,proximal colon,relaxation in the proximal colon
